Assay results reported in publication PMC6300606.

Tests used:
[1] = biological target: TssG (EAEC, residues 64–366) (enteroaggregative Escherichia coli (EAEC)); test: cryo-EM structure; TssKSN–TssF–TssG complex co-expressed in E. coli and purified (Ni-NTA, Superose 6); 0.12 mg/ml in 20 mM Tris-HCl pH 7.8, 150 mM NaCl; single-particle cryoEM, 3.7 Å overall
[2] = biological target: TssKSN (shoulder and neck domains of EAEC TssK, residues 1–315) (enteroaggregative Escherichia coli (EAEC)); test: as above

Q: With “TssF (EAEC, full length) (natural protein)” as the substance, how does the stoichiometry N (TssF per TssG) [1] read?
A: Its stoichiometry N (TssF per TssG) is 2.

Q: Which stoichiometry N [2] does the source give for “TssKSN (shoulder and neck domains of EAEC TssK, residues 1–315) (domain or fragment)” here?
A: Its stoichiometry N is 3.
